pKd: −log10 of the molar value.
How the values were obtained:
[1] = molecular target: fibrin clots formed in human plasma (human (endogenous in plasma)) (UniProt P02679); assay: co-sedimentation; time course: enhanced clots formed in plasma with 125I-ligand (25,000 cpm), eight times from 0 to 960 min at 37°C; washed three times with 10 mM HEPES, 70 mM NaCl, 0.5 mM EDTA, 5 M urea pH 7.4; what stays is judged covalently bound
[2] = molecular target: fibrin made from purified fibrinogen with thrombin (UniProt P02679); assay: radioligand binding; serial dilutions of 125I-ligand from 500,000 cpm/well on fibrinogen-, fibrin- or BSA-coated Maxisorp wells; 30 min, 37°C; 25 mM HEPES-0.1% Tween 20 pH 7.4 (20 mM in the legend), without or with 5 mg/ml fluid-phase BSA; bound label eluted with 0.1 M NaOH; Scatchard plot
[3] = molecular target: fibrin made from purified fibrinogen with thrombin (UniProt P02679); assay: co-sedimentation; fibrin-only clots: 3.5 mg/ml purified fibrinogen with 125I-ligand (25,000 cpm) in 10 mM HEPES, 70 mM NaCl, 5 mM CaCl2 pH 7.4, clotted with thrombin (8.75 μg/ml), 40 min, 37°C; washed with HEPES-1/2-saline
[4] = molecular target: fibrin clots formed in human plasma (human (endogenous in plasma)) (UniProt P02679); assay: cross-linking; 125I-ligand (25,000 cpm) with 0.9% plasma and 20 μg fibrinogen in 50 μl HEPES-1/2-saline, 20 mM CaCl2, 16 h, 37°C; cross-linking by the FXIIIa of the plasma; washed clots on reducing SDS-PAGE (4-12%), autoradiography
[5] = molecular target: fibrin clots formed in human plasma (human (endogenous in plasma)) (UniProt P02679); assay: co-sedimentation; time course: enhanced clots formed in plasma with 125I-ligand (25,000 cpm), eight times from 0 to 960 min at 37°C; washed with HEPES-1/2-saline (non-denaturing)
[6] = molecular target: fibrin clots formed in human plasma (human (endogenous in plasma)) (UniProt P02679); assay: ELISA; levels of endogenous factor H (captured on monoclonal MRCOX23) and C1q (captured on ovalbumin antigen-antibody complexes) in citrated plasma and in the serum from the same plasma; the loss on clotting is taken as binding to clots
[7] = molecular target: fibrin clots formed in human plasma (human (endogenous in plasma)) (UniProt P02679); assay: co-sedimentation; clots formed in 45% human plasma with 20 mM CaCl2 in the presence of 125I-ligand (25,000 cpm), 40 min, 37°C, at about 70 mM, 140 mM or 1 M salt; clots spun at 1,000 x g and washed three times in reaction buffer; bound = input minus cpm in supernatants
[8] = molecular target: fibrin made from purified fibrinogen with thrombin (UniProt P02679); assay: radioligand binding; saturation: fixed 125I-factor H (250,000 cpm, 80 ng/well) mixed with unlabeled factor H (0-5,120 ng/well) on fibrin-coated wells; 30 min, 37°C
[9] = molecular target: fibrin clots formed in human plasma (human (endogenous in plasma)) (UniProt P02679); assay: co-sedimentation; panel of 125I-labelled plasma proteins (25,000 cpm each) present while enhanced clots formed in plasma; 16 h, 37°C; clots washed three times in 10 mM HEPES, 70 mM NaCl, 0.5 mM EDTA, 5 M urea pH 7.4
[10] = molecular target: fibrin made from purified fibrinogen with thrombin (UniProt P02679); assay: radioligand binding; inhibition: 125I-factor H (2 μg/well) premixed on ice with unlabeled factor H (0-30 μg/well) or ovalbumin, on fibrin-coated wells; 30 min, 37°C
[11] = molecular target: fibrin made from purified fibrinogen with thrombin (UniProt P02679); assay: radioligand binding; 125I-ligand (100,000 cpm) on fibrin-coated wells in veronal buffer ([…] sodium barbital, […] CaCl2, 0.5 mM MgCl2, pH 7.4) with 20, 75 or 150 mM NaCl; 30 min, 37°C; washes at the same NaCl
[12] = molecular target: fibrin clots formed in human plasma (human (endogenous in plasma)) (UniProt P02679); assay: co-sedimentation; enhanced clots: as the plasma clots but with extra fibrinogen (2 mg/ml) added; 40 min, 37°C; 70 mM, 140 mM or 1 M salt; washed with reaction buffer (HEPES-1/2-saline at 70 mM)

Sequence of factor H (P08603 19-1231): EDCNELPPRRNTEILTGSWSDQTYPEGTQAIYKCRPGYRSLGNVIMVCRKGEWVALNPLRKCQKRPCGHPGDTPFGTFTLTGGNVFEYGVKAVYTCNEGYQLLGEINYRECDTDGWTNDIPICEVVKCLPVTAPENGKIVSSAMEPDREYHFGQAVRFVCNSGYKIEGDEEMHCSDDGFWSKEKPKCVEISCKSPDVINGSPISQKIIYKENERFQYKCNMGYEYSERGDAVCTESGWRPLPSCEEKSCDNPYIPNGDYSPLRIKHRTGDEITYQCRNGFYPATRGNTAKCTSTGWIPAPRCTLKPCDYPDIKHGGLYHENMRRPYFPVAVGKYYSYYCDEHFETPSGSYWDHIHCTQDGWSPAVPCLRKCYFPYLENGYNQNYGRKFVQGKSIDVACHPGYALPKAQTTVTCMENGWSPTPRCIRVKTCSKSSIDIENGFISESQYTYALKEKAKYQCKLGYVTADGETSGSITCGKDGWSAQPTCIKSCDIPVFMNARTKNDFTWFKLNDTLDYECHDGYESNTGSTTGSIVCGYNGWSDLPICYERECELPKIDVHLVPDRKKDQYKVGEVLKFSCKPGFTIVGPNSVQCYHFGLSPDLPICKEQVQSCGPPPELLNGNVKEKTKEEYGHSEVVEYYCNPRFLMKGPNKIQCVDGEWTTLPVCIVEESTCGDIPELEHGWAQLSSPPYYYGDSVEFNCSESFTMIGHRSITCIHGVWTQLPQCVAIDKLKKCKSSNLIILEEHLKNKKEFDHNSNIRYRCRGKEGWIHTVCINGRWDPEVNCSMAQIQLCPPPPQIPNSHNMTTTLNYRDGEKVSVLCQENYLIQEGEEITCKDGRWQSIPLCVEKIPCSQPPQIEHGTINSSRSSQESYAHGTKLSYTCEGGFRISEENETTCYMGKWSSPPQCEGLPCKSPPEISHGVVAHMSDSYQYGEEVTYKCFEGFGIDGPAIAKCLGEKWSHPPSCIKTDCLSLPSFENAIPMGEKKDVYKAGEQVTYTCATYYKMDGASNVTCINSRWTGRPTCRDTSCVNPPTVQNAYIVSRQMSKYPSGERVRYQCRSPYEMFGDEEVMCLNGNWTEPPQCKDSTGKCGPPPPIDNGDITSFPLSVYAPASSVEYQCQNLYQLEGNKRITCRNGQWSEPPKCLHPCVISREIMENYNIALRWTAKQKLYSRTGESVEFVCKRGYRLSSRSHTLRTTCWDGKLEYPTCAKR
Sequence of UniProt P02679 (P02679 whole entry, looked up): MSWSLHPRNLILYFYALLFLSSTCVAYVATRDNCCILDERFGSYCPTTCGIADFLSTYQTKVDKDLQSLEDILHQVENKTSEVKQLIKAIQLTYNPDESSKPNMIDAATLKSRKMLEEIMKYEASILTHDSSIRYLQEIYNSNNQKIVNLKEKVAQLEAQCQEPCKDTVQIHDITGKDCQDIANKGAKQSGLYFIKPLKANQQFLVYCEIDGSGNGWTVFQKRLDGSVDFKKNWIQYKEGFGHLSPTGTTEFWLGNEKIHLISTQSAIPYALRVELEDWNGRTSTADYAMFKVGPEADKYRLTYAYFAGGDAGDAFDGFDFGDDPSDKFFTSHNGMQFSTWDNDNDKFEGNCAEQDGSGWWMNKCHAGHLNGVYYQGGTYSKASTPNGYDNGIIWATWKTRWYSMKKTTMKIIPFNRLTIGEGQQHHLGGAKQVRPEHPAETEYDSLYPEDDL

Row | percent bound at 30 min, after urea wash [1] [%] | percent bound at 96 min, after urea wash [1] [%] | percent bound at 960 min, after urea wash [1] [%] | pKd [2] | percent of input bound (500,000 cpm/well) [2] [%] | percent bound to fibrin-only clots (HEPES-1/2-saline wash) [3] [%] | percent of 125I-factor H in the large cross-linked aggregate that did not enter the gel [4] [%] | percent bound at 30 min, non-denaturing wash [5] [%] | percent bound at 96 min, non-denaturing wash [5] [%] | percent of the plasma level lost in the serum of the same plasma (healthy volunteer sample) [6] [%] | percent bound to plasma clots at 70 mM salt [7] [%] | percent of input bound at saturation (input 3.5 μg/well) [8] [%] | Protein incorporated into fibrin clots (%) [9] [%] | percent bound to fibrin clots [9] [%] | percent inhibition of the binding of 125I-factor H at an equal molar ratio of unlabeled to labeled factor H [10] [%] | binding at 75 mM NaCl relative to that at 20 mM NaCl [11] [%] | fold increase of percent bound, enhanced clots over plasma clots without added fibrinogen, at 140 mM NaCl [12] [fold] | percent bound to enhanced plasma clots (HEPES-1/2-saline wash) [12] [%] | Substance
1 | 13 | 18 | 32.5 | 10.26 | 1.7 | 19 | 5.2 | 22 | 26 | 38 | 21.5 | 0.1 | 28.7 | 30 | 48 | < 50 | 6 | 21.5 | factor H (from UniProt P08603 19-1231) (natural protein)
2 | – | – | – | – | – | – | – | – | – | – | – | – | 32.8 | 31 | – | – | – | – | plasminogen (natural protein)
